# According to patent publication US20230242902A1, “A HIGHLY ERROR-PRONE […] R[…] FOR TARGETED CONTINUOUS EVOLUTION IN VIVO” (The Regents of the University of California, priority 2017, published 2023):
# Assays:
# genomic URA3 gene = experiment: Fluctuation tests of the genomic URA3 gene in the presence of TP-DNAP1 variants; format: cell-based, S. cerevisiae; conditions: for Yeast genomic substitution mutation rate: URA3 locus, strain harbouring p1 and the TP-DNAP1 variant
# Protocol: Fluctuation tests of the genomic URA3 gene were performed to determine genomic per-base substitution rates, as previously described (Ravikumar et al., 2014). Fluctuation data were analyzed by the maximum likelihood method, as described for large-scale p1 fluctuation tests. Phenotypic mutation rates were divided by the target size for loss of function of URA3 via base pair substitution (Lang et al., 2008), to yield per-base substitution rates. 95% confidence intervals were similarly scaled by these factors. All data related to genomic URA3 fluctuation tests are fully described in Table 5.
# p2-delORF2-URA3 = experiment: Complementation of native TP-DNAP2 deletion (p2-delORF2-URA3 replication in trans); format: cell-based, S. cerevisiae
# Source text: First, TP-DNAP2, which is ORF2 of p2, was deleted by homologous recombination of a synthetic cassette encoding URA3. Since p2 is a multi-copy plasmid, the resulting strain (GA-Y069) harbored a mixture of the parental wt p2 and the recombinant p2 with ORF2 deleted (p2-delORF2-URA3), along with unaltered p1. In this strain, both the wt p2 and recombinant p2-delORF2-URA3 plasmids rely on TP-DNAP2 encoded on the parental wt p2 plasmid for replication. Thus, loss of wt p2 should disable replication of p2-delORF2-URA3. […] Next, the same experiment was repeated in the presence of a codon-optimized TP-DNAP2 expressed in trans from a standard yeast CEN6/ARS4 nuclear plasmid (pGA55-reTP-DNAP2). […] Therefore, p2-derived plasmids can be replicated by TP-DNAP2 encoded on a standard nuclear plasmid, simplifying the characterization of p2 replication by error-prone TP-DNAP2 variants.
Molecule,genomic mutation rates in the presence of p1 replication (genomic URA3 gene),Yeast genomic substitution mutation rate (genomic URA3 gene),ability to complement deletion of native TP-DNAP2 and sustain p2-delORF2-URA3 replication (p2-delORF2-URA3)
"TP-DNAP1-4-2: TP-DNAP1 variant (L477V, L640Y, I777K, W814N), encoded by SEQ ID NO:11 (protein, listed as Kluyveromyces lactis) MDYKDKALNDLRNVYADFDSLPLDFRQILIKDRATLLQKEDVEKKILERQEDAKKYAEYLKQSEIPERISLPNIKRHKGVSISFEETSEDMVLEPRPFIFDGLNIRCFRRETIFSLKNKILNMVKESSSFKNVSRQSVSFMYFKIFNKGKVIASTKSVNIYEDKIDERLEDLCNNFDDVLKKIIDVTYGYESLFVSETYSYVIFYAKSIYFPQPRCVNNWGNNIPNILTFDSFKLFTANKNNVSCIKQCSRFLWQKDFNTLEEMIEYKNGNICIVTPQLHINDVRDIKSFNDIRLYSESPIKTFSVIDNTITYLFYFKEHLGVIFNITKSRHDRRVTKFSPLSKFSDVKNITVCFDIESYFDPEKESNQVNIPFICCASIIYNKVIGNIVDFEGRDCVAQMIEYVVDICGELNISSVELIAHNGGGYDFHYILSSMYNPAAIKNILIRNNSFISFNFAHDGVKFSVKDSYSFLLCSVANASKAFLNEETFKKTDFPHHDLKTADDLYKVYKEWSSVNTEINHVVEKEKLLITSEHIVNFTKNDKSKTLIEWSKDYCRNDVLVLSKVWLEFKNAVEDIFNCELVDQTMTLAGLSYKLFQANMPFDVELRHPNKEDYFNMREALIGGRCISVNGIYKDVLCYDVKSLYPASMAFYDQPYGSFKRVSSRPKDELGIYYVRVTPNRNNKSNFFPIRSHNKITYNNFEESTYIAWYTNVDIDIGLSEGHNIEYIPFDSYGNIGYSWSKKGKIFEKYIKDVLYKLKIKYEKQNNKVKRNVIKKIMNSLWGKFAQKWVNFEYFIKSEDDIDFESEEAYKINDTDFMLIKKIKESTYSSKPIQNGVFTLSWARYHMKSIWDAGAKEGAECIYSDTDSIFVHKEHFKKNAKFMLNGLKVPIIGSEVGQLELECEFDKLLCAGKKQYMGFYTYFQDGKPCIKEKKRFKGIPSNYIIPELYAHLLSGADKEAKIQFLKFRREWGSVKGYIENKTVKAT",remain unchanged,1.98 × 10^−10 s.p.b.,–
"w.t.: wild-type Kluyveromyces lactis DNA polymerase TP-DNAP1, SEQ ID NO:1 (protein, listed as Kluyveromyces lactis) MDYKDKALNDLRNVYADFDSLPLDFRQILIKDRATLLQKEDVEKKILERQEDAKKYAEYLKQSEIPERISLPNIKRHKGVSISFEETSEDMVLEPRPFIFDGLNIRCFRRETIFSLKNKILNMVKESSSFKNVSRQSVSFMYFKIFNKGKVIASTKSVNIYEDKIDERLEDLCNNFDDVLKKIIDVTYGYESLFVSETYSYVIFYAKSIYFPQPRCVNNWGNNIPNILTFDSFKLFTANKNNVSCIKQCSRFLWQKDFNTLEEMIEYKNGNICIVTPQLHINDVRDIKSFNDIRLYSESPIKTFSVIDNTITYLFYFKEHLGVIFNITKSRHDRRVTKFSPLSKFSDVKNITVCFDIESYFDPEKESNQVNIPFICCASIIYNKVIGNIVDFEGRDCVAQMIEYVVDICGELNISSVELIAHNGGGYDFHYILSSMYNPAAIKNILIRNNSFISFNFAHDGVKFSVKDSYSFLLCSLANASKAFLNEETFKKTDFPHHDLKTADDLYKVYKEWSSVNTEINHVVEKEKLLITSEHIVNFTKNDKSKTLIEWSKDYCRNDVLVLSKVWLEFKNAVEDIFNCELVDQTMTLAGLSYKLFQANMPFDVELRHPNKEDYFNMREALIGGRCISVNGIYKDVLCLDVKSLYPASMAFYDQPYGSFKRVSSRPKDELGIYYVRVTPNRNNKSNFFPIRSHNKITYNNFEESTYIAWYTNVDIDIGLSEGHNIEYIPFDSYGNIGYSWSKKGKIFEKYIKDVLYKLKIKYEKQNNKVKRNVIKIIMNSLWGKFAQKWVNFEYFIKSEDDIDFESEEAYKIWDTDFMLIKKIKESTYSSKPIQNGVFTLSWARYHMKSIWDAGAKEGAECIYSDTDSIFVHKEHFKKNAKFMLNGLKVPIIGSEVGQLELECEFDKLLCAGKKQYMGFYTYFQDGKPCIKEKKRFKGIPSNYIIPELYAHLLSGADKEAKIQFLKFRREWGSVKGYIENKTVKAT",–,8.73 × 10^−11 s.p.b.,–
"S370Q: TP-DNAP2 variant (protein, listed as Kluyveromyces lactis) MNDELAFLNSQIDDYSDDIEFLRTEVFRINRYSKSIYSLMKNSSKEAIKETIEFNKYGQEIHSKIKEKEISLIEAIKLMEKKYKYLRSLNKTKDKSKKKKIHTKDIETLKTIYKTKADFDIRNFKNAETFTYENYSLLIPSEKELIDLIPEIEEDYSYYFYVSLTITGPTIFGGVTRKVPIIDTYGDINKDFYNKIKENITKVLDRVPFYEEKESEIICKKVLITLTVNKWESIDKWYKNVKSKSKKFKDFTLFLASDTSKNCVQQCVEYLGGKWNTNYSLEKMIPQQKIVTYIPLLMDIQYVQSMEDLISDFDEPNTDCKNIARLLKWNGHMGVITKIDKDVKINRIQRKRIIDVENKEVKEVFFDIEQFSDETKHQIPYLICWSYLGELYYRTGKNCIKEFVEEILSYNVDIILYAWYGSGYDYQHVLPYMKSKCIKDKYIIKNNMITYGELYYENAIIYLKDPYLFILTSLDKASKAFNVINKGEFPHSIIHSWEDLNKILPNWVKIQKRMIEYKDDNKLNIYYKNIEIFENDRNYNTILENAIEYCKVDVLAMEKVWIKFKKLLEKNLNITVSVKTFTLSQLSMKIMESKLPKYVKLYVPTLEEYSKIRNAIYGGRVISKNGIYEENIVYADVVSLYPSAMKLLKHSYGKPKLVDYIDFEKHGIYRVTLLNKHDQEPKNYLNFVPRRINRKLTWEWFKIHEGWYHTYDLIIAKSEGFDIYCHEGFEYPEKDYIFNDFIDTLYSMKETHTACSCEEQPCPIRMVAKIALNGGGYGKFVQKPIDKEIYIVKRDVVAGECDKLQENENGEICIGKRLVKRPLFYNLDSENYDKMIIEKEDEPIYSTQCGISILSASRYRLYKLCKQFENIDIIYSDTDSIFVKQKSVDWELFKSKCGSELGQLDSTIDDTKNAIISKMYIGGAKMYAFEYLNNKNKLITKLHCKGVPNYMLSLNQFKYLMESPDNTIAYKFEIIRRKLVNVITKDLIKDIKQT",–,–,not active enough to fully complement a deletion of the native TP-DNAP2
"Y424Q: TP-DNAP2 variant (protein, listed as Kluyveromyces lactis) MNDELAFLNSQIDDYSDDIEFLRTEVFRINRYSKSIYSLMKNSSKEAIKETIEFNKYGQEIHSKIKEKEISLIEAIKLMEKKYKYLRSLNKTKDKSKKKKIHTKDIETLKTIYKTKADFDIRNFKNAETFTYENYSLLIPSEKELIDLIPEIEEDYSYYFYVSLTITGPTIFGGVTRKVPIIDTYGDINKDFYNKIKENITKVLDRVPFYEEKESEIICKKVLITLTVNKWESIDKWYKNVKSKSKKFKDFTLFLASDTSKNCVQQCVEYLGGKWNTNYSLEKMIPQQKIVTYIPLLMDIQYVQSMEDLISDFDEPNTDCKNIARLLKWNGHMGVITKIDKDVKINRIQRKRIIDVENKEVKEVFFDIESFSDETKHQIPYLICWSYLGELYYRTGKNCIKEFVEEILSYNVDIILYAWYGSGQDYQHVLPYMKSKCIKDKYIIKNNMITYGELYYENAIIYLKDPYLFILTSLDKASKAFNVINKGEFPHSIIHSWEDLNKILPNWVKIQKRMIEYKDDNKLNIYYKNIEIFENDRNYNTILENAIEYCKVDVLAMEKVWIKFKKLLEKNLNITVSVKTFTLSQLSMKIMESKLPKYVKLYVPTLEEYSKIRNAIYGGRVISKNGIYEENIVYADVVSLYPSAMKLLKHSYGKPKLVDYIDFEKHGIYRVTLLNKHDQEPKNYLNFVPRRINRKLTWEWFKIHEGWYHTYDLIIAKSEGFDIYCHEGFEYPEKDYIFNDFIDTLYSMKETHTACSCEEQPCPIRMVAKIALNGGGYGKFVQKPIDKEIYIVKRDVVAGECDKLQENENGEICIGKRLVKRPLFYNLDSENYDKMIIEKEDEPIYSTQCGISILSASRYRLYKLCKQFENIDIIYSDTDSIFVKQKSVDWELFKSKCGSELGQLDSTIDDTKNAIISKMYIGGAKMYAFEYLNNKNKLITKLHCKGVPNYMLSLNQFKYLMESPDNTIAYKFEIIRRKLVNVITKDLIKDIKQT",–,–,not active enough to fully complement a deletion of the native TP-DNAP2
